Laboratory results from patent US20260250410A1, “ANTIBODY AND USE THEREOF” (SICHUAN HUIYU PHARMACEUTICAL CO., LTD., priority 2022, published 2026).

T1: HuCDCP1-C (Homo sapiens, UniProt Q9H5V8)
T1 construct: made in house; host or cells: HEK-293T
T1 sequence (Q9H5V8 30-667): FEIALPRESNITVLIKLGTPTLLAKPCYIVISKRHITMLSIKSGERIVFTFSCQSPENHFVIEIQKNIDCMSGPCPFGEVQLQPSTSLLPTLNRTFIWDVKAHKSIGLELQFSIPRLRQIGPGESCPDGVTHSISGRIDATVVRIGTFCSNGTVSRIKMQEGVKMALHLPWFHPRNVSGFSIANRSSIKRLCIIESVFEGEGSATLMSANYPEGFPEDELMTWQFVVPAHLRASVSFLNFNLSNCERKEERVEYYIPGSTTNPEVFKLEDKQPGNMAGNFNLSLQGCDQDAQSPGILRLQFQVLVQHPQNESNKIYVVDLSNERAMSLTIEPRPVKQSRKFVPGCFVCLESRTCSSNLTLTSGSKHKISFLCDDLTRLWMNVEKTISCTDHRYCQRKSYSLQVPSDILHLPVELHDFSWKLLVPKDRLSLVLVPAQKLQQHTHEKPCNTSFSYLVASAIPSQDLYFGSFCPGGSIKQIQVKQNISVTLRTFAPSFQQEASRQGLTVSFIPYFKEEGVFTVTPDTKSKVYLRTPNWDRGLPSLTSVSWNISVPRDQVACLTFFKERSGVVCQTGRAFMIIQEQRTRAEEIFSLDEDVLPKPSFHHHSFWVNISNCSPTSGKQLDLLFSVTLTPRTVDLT


Target: T1, HuCDCP1-C
Assay: Caterra affinity of humanized anti-CDCP1 antibodies
Assay type: binding
Settings: HuCDCP1-C 2 μg/ml immobilized
Procedure: The humanized anti-CDCP1 antibodies obtained from Example 11 were subjected to gene cloning, constructed into pTT5 expression vector for a small amount of expression in CHO cells (Expi-CHOS: Gibco A29127), and purified with an Fc affinity column (AT Protein A Diamond Plus. No. AA402312). Antibody purity was analyzed by HPLC and determined by Nanodrop. High-throughput affinity assay was carried out for a small amount of antibodies by Caterra.

Molecule | ka | kd
1CP-156: humanized anti-CDCP1 antibody produced by 8C9; VH SEQ ID NO: 344, VL SEQ ID NO: 355 (antibody, V domains shown, humanized antibody 8C9 heavy chain variable region 02; humanized antibody 8C9 light chain variable region 02) VH: EVQLVESGGGLVQPGRSLRLSCTTSGLTFTHYHMSWVRQAPGKGLEWVAIIRNKAYGYTTDYSASVRGRFTISRDDSKSILYLQMNSLKTEDTAVYYCVREGGYGYDGTFAYWGQGTLVTVSS VL: DIQMTQSPSSLSASVGDRVTITCRASESVDNYGISFMNWFQQKPGQPPKLLIYAASNQGSGVPSRFSGSGSGTDFTLTISSMQPEDFATYYCQQSKEVPRTFGGGTKVEIK | 123000 M⁻¹ s⁻¹ | 0.000441 s⁻¹
1CP-158: humanized anti-CDCP1 antibody produced by 8C9; VH SEQ ID NO: 346, VL SEQ ID NO: 355 (antibody, V domains shown, humanized antibody 8C9 heavy chain variable region 04; humanized antibody 8C9 light chain variable region 02) VH: EVQLVESGGGLVQPGRSLRLSCTTSGLTFTHYHMSWVRQPPGKAPEWVAIIRNKAYGYTTDYSASVRGRFTISRDDSKSILYLQMNSLKTEDTAVYYCVREGGYGYDGTFAYWGQGTLVTVSS VL: DIQMTQSPSSLSASVGDRVTITCRASESVDNYGISFMNWFQQKPGQPPKLLIYAASNQGSGVPSRFSGSGSGTDFTLTISSMQPEDFATYYCQQSKEVPRTFGGGTKVEIK | 109000 M⁻¹ s⁻¹ | 0.000321 s⁻¹
1CP-112: humanized anti-CDCP1 antibody produced by 8E5; VH SEQ ID NO: 347, VL SEQ ID NO: 357 (antibody, V domains shown, humanized antibody 8E5 heavy chain variable region 01; humanized antibody 8E5 light chain variable region 01) VH: QVQLVQSGSELKKPGASVKVSCKASGYTLTDFSMHWVRQAPGQGLEWMGWINTETGAPTYADDFKGRFVFSLDTSVSTAYLQISSLKAEDTAVYYCSRGRDYDPHFDYWGQGTLVTVSS VL: EIVLTQSPATLSLSPGERATLSCRASQSISDFLHWYQQKPGQAPRLLIKYASQSISGIPARFSGSGPGSDFTLTISSVEPEDFAVYYCQSAHSFPYTFGQGTKLEIK | 136000 M⁻¹ s⁻¹ | 5e-05 s⁻¹
1CP-113: humanized anti-CDCP1 antibody produced by 8E5; VH SEQ ID NO: 348, VL SEQ ID NO: 357 (antibody, V domains shown, humanized antibody 8E5 heavy chain variable region 01; humanized antibody 8E5 light chain variable region 01) VH: QVQLVQSGSELKKPGASVKVSCKASGYTLTDFSMHWVRQAPGQGLEWMGWINTETGAPTYADDFKGRFVLSLDTSVSTAYLQISSLKAEDTAVYYCSRGRDYDPHFDYWGQGTLVTVSS VL: EIVLTQSPATLSLSPGERATLSCRASQSISDFLHWYQQKPGQAPRLLIKYASQSISGIPARFSGSGPGSDFTLTISSVEPEDFAVYYCQSAHSFPYTFGQGTKLEIK | 143000 M⁻¹ s⁻¹ | 5.9e-05 s⁻¹
1CP-114: humanized anti-CDCP1 antibody produced by 8E5; VH SEQ ID NO: 349, VL SEQ ID NO: 357 (antibody, V domains shown, humanized antibody 8E5 heavy chain variable region 03; humanized antibody 8E5 light chain variable region 01) VH: QVQLVQSGSELKKPGESVKVSCKASGYTLTDFSMHWVRQAPGQGLEWMGWINTETGAPTYADDFKGRFVLSLDTSVSTAYLQISSLKSEDTAVYYCSRGRDYDPHFDYWGQGTLVTVSS VL: EIVLTQSPATLSLSPGERATLSCRASQSISDFLHWYQQKPGQAPRLLIKYASQSISGIPARFSGSGPGSDFTLTISSVEPEDFAVYYCQSAHSFPYTFGQGTKLEIK | 161000 M⁻¹ s⁻¹ | 0.00246 s⁻¹

More lines, now with the values ahead:

ka | kd | Molecule
110000 M⁻¹ s⁻¹ | 0.00042 s⁻¹ | 1CP-160: humanized anti-CDCP1 antibody produced by 8C9; VH SEQ ID NO: 344, VL SEQ ID NO: 356 (antibody, V domains shown, humanized antibody 8C9 heavy chain variable region 02; humanized antibody 8C9 light chain variable region 03) VH: EVQLVESGGGLVQPGRSLRLSCTTSGLTFTHYHMSWVRQAPGKGLEWVAIIRNKAYGYTTDYSASVRGRFTISRDDSKSILYLQMNSLKTEDTAVYYCVREGGYGYDGTFAYWGQGTLVTVSS VL: DIQMTQSPSSLSASVGDRVTITCRASESVDNYGISFMNWFQQKPGQPPKLLIYAASNQGSGVPSRFSGSGSGTDFTLTISSMQPEDFATYFCQQSKEVPRTFGGGTKVEIK
18000 M⁻¹ s⁻¹ | 0.000767 s⁻¹ | 1CP-159: humanized anti-CDCP1 antibody produced by 8C9; VH SEQ ID NO: 343, VL SEQ ID NO: 356 (antibody, V domains shown, humanized antibody 8C9 heavy chain variable region 01; humanized antibody 8C9 light chain variable region 03) VH: EVQLVESGGGLVQPGRSLRLSCTASGLTFTHYHMSWFRQAPGKGLEWVAIIRNKAYGYTTDYSASVRGRFTISRDDSKSILYLQMNSLKTEDTAVYYCVREGGYGYDGTFAYWGQGTLVTVSS VL: DIQMTQSPSSLSASVGDRVTITCRASESVDNYGISFMNWFQQKPGQPPKLLIYAASNQGSGVPSRFSGSGSGTDFTLTISSMQPEDFATYFCQQSKEVPRTFGGGTKVEIK
113000 M⁻¹ s⁻¹ | 0.000305 s⁻¹ | 1CP-162: humanized anti-CDCP1 antibody produced by 8C9; VH SEQ ID NO: 346, VL SEQ ID NO: 356 (antibody, V domains shown, humanized antibody 8C9 heavy chain variable region 04; humanized antibody 8C9 light chain variable region 03) VH: EVQLVESGGGLVQPGRSLRLSCTTSGLTFTHYHMSWVRQPPGKAPEWVAIIRNKAYGYTTDYSASVRGRFTISRDDSKSILYLQMNSLKTEDTAVYYCVREGGYGYDGTFAYWGQGTLVTVSS VL: DIQMTQSPSSLSASVGDRVTITCRASESVDNYGISFMNWFQQKPGQPPKLLIYAASNQGSGVPSRFSGSGSGTDFTLTISSMQPEDFATYFCQQSKEVPRTFGGGTKVEIK
114000 M⁻¹ s⁻¹ | 0.000365 s⁻¹ | 1CP-161: humanized anti-CDCP1 antibody produced by 8C9; VH SEQ ID NO: 345, VL SEQ ID NO: 356 (antibody, V domains shown, humanized antibody 8C9 heavy chain variable region 03; humanized antibody 8C9 light chain variable region 03) VH: EVQLVESGGGLVQPGRSLRLSCTTSGLTFTHYHMSWVRQAPGKGPEWVAIIRNKAYGYTTDYSASVRGRFTISRDDSKSILYLQMNSLKTEDTAVYYCVREGGYGYDGTFAYWGQGTLVTVSS VL: DIQMTQSPSSLSASVGDRVTITCRASESVDNYGISFMNWFQQKPGQPPKLLIYAASNQGSGVPSRFSGSGSGTDFTLTISSMQPEDFATYFCQQSKEVPRTFGGGTKVEIK
